This note sets out measurements from the DeepSol protein solubility set.

This data set can be described thus: soluble on expression in E. coli; label from the status in PepcDB or PDB records.
With “MSLKKNVYFLLALLLIGLSACDNAPKFKVQGEINGAEDKMLYLEASGLDGIVALDSAKLGSSGSFSFAQKRPESPEFYRLRLDNKVINFAVDSTETVSVKAEINDFATAYRIEGSENNLKIKELVLLQADLQKNVDKLGQNRNIPAGIAQDSLLAMVNNYKNKVKREYIFAAPNMPYAYFALFQSLNGYMIFDPLTNKEDVKCFAAVATSLNNAYPHADRSRNLYNMVIKGMKNTRTPRQQTMEIPEDKIKEASIIDIQLKDLKGNTRSLTDLKGKVVLIDFTVYNNAMSAAHNLALRELYNKYASQGFEIYQISLDGDEHFWKTSADNLPWVCVRDANGAYSSYISLYNVTNLPSVFLVNRNNELSARGENIKDLDEAIKKLLEGHHHHHH”, the “soluble on expression in E. coli” value was “not soluble”.

On to “MSLKKPLIVQKFGGTSVGSIERMQTVAEHIIKAKNDGNQVVVVVSAMAGETNRLVGLAQQVDSVPNARELDVLLSAGEQVSMALVAMTLHKMGYAARSLTGAQANIVTDNQHNDATIKHIDTRTITELLEQDFIVIVAGFQGINENGDITTLGRGGSDTSAVALAGALNADECQIFTDVDGIYTCDPRIVPSARKLDVIDFPSMEEMARKGAKVLHLPCVQYAWKHAVPLRVLSTFEVNQGSLIKGSAATHAVCGIALQRDMALIRVESESFPSIIKQCQMLGIEVCTTIDEPTHSAFVIKRDAYAKLQLVGADKIRGSEPVSLITKVGIQAGALVAHARQTLAQHGIDVRYVSASEQSSMLMLDPANVDRAANILHETYVTSEIPQEFGLKQTFLGEGHHHHHH”, for which the “soluble on expression in E. coli” value is reported as “not soluble”.

For “MSLKLYYMPAACSLSPHIVANELELDIEFVRVNFKDHKTEGGQDYYDINPNGYIPALDVGNGAMLFEGPAIVQYMADLKPQSGLAPANGTFERYKLQEMLSFLSTEIHKGFIPLLYAKQAGAYLETATPKLEKRYAWIDNLLASQRFLMGENFTVADAYLFALTSWGQASWLKSYYGADIHFDDLLNLRGWYERVKERDAVKQSILEEGLSLSEGHHHHHH”, the “soluble on expression in E. coli” value is “soluble”.

For the sequence “MSLKMRNNVFVFDSPYCLLIYCILFNHQLHDTIYIYSDNVSLRDINFPGKERYIIKKGNNKTSKIFYYFCFLFRLIINPKLRKLISNRKDYRFLGQDHLFFSKPFLNEFILLEDGLANYRYPHYSRLYKLIIGGHTFGRSTKVNKILLSGMIDIIDPTINDKVEFFDLIAAWEKLNSVQKKEINHIFNYCIEDELVADVMILTQPLSEDGFISENEKIRLYDEIIKEYDDKKIVIRQHPRELTDYSLYFKDVKVNKVKAPVELVVLNSPMIKTAVTLFSGGIFNIPCREKIFKGTSFSPLLSKHFGNISNKFEVKGKKEGHHHHHH”, the “soluble on expression in E. coli” value is listed as “soluble”.

With “MSLKNIVFCGLSSRAFSMFIKPLMERFSTHYEITGLLDADPKRFAVCKKKFPELAHVPEFSEDAFDEMMRVSKPDIVIVAGRDDTHVAYIVKSLQWNTDVITEKPMVTTVQDANRVLEAEAKSEGKVTVAFNYRYSPFHRKIKEMILDGKIGRVTSVDLNWYIDTYHGASYFKRWNRSRQFSGGLSVHKSTHHFDLVNWWLGQNPEEVFAYGALNYYGPDSEWNPLPEEDGRFCGTCRVKEKCHYYSRWHPRSSKASIKDDHLEAGDQSSLYTAYRPDACIFDEEIDIEDTYVAAVKYDGGALLSYSIIFSAPYEGYRLTINGTKGRIESNEFHEPSRIPFAFPEQTIEYYPLFESKQTIQVVKNEGGHGGGDPLLLEDLFLGKDPLRRYDILAGAEAGAYSIAVGEGMWRSVAEKKPIGMKELFQMQNEGHHHHHH”, the “soluble on expression in E. coli” value is listed as “soluble”.

Take “MSLKNLPIGGVWKGKVKLHSNSPAQDYFANITLNTLDPNHIDVFFPEFAHATPRVQLDLHPTGSVNGSNYAQDLTMLDMCLYDGFNGNAISYEIMLKDEGRPAAGRRDGYFSIYRQGGTTTDEGERIDYRVKMYNPETGGQIDVRNNENMVWNSINLKRVRPVVLPGIRYAVMCVPTPLTLAVDKFSVMDKQAGYYMGKLSVIFTPSLPTINEGHHHHHH”: the “soluble on expression in E. coli” value is listed as “soluble”.

Consider “MSLKNQKPLAELLRPSTLEEYFGQNKLIGEQTLLRSLLKSQEIPSLILWGPPGCGKTTLAHIIASSIKQKGTGRFVTLSATSASVSDVREVIKQAQNELRLCKRKTVLFIDEIHRFNKSQQDTFLPHVECGTITLIGATTENPSFQVNSALLSRCRVLVLERLSVEAVGSILRRAVDFLDLRILDSEERHSSEICSEAQVCVEQKALDTLAHLCDGDARAALNGLQLAVQACVLQSSSNHNRSSTVVREQHIKEALQRSHILYDKAGEEHYNCISALHKSMRGSDANAALYWLARMLEGGEDPLYVARRLVRFASEDIGLADPVALSQAVAAFQACHLIGMPECEVILAQCAVYLARAPKSVEVYKAYNNVKMCLRNHKGPLPSVPLHLRNAPTKLMKNLGYAKGYKYNPNYSGPVKQEYLPEELRGVDFFTWTPSEGHHHHHH”, for which the “soluble on expression in E. coli” value was “not soluble”.

As for “MSLKNTTHFIVFDIERNFRPYKSDDPSEIVDIGAVKIEASTMKVIGEFSELVKPGARLTRHTTKLTGITKKDLMNVEKFPQIIERFIQFIGEDSIFVTWGKEDYRFLVHDCTLHGVDCPCMEKERRIDLQKFVFQAYEELFEHTPSLQSAVEQLGLTWEGKQHRALADAENTANILLKAYSERDITKRYKRHGELELVENGKLTEKAKKKMRKWVFKEMRKNTERPFAWSTFESSDTWESITERYYISEPTIELLKKHFRTAVRKAERRIRYLAEMEKNAEVKEGHHHHHH”, the “soluble on expression in E. coli” value was “soluble”.

For the sequence “MSLKPFSEPIIRCAKARAYRIPTDRPEADGTFAWTDTTIVVATLDAGDAHGIGYTYTDASAAALIERMLAPALDGRSAFDIGGALAALRRAVRNVGRGGVAATAISALDAALWDAKAKLLGLPLAKLLGGVRDAVPVYGSGGFTSYDEHALRAQLEGWRAQGLHACKIKVGSAPRDDPARVRIARDALGGGVALFVDANGAFAPHDALAFAQRIAECDVRWFEEPVSADDIDGLRFVRERLAAGVDVAAGEYGYTLDDFRVLLASGALDVLQADATRCGGVSGFLEAATLADAFHRDLSAHCAPALHRHVCCAAPRVRHVEWFHDHARIERMLFDGAPTPRDGAIAPDMSRPGLGIELKAQDAARFAVEGHHHHHH”, the “soluble on expression in E. coli” value is “not soluble”.

For “MSLKPLADRIRPENFNEVFGQKHIIGEGKILDRILKSSLVPNMIFYGPPGTGKTTVANIIAKKTNKAFYKLNATTASVKDVREITDSTNTLMGRNGVLLYLDEIQNFNKKQQQSLLEFMENGSITLIASTTENPYFYVYNAILSRSTIFEFKPLESDELMKAVNRAVELIKDELKTTEIIITEDAKKYAVGVSSGDVRKTLNSIEIAVYSTKPNEEGNIFIDLETMKECTQKNVLNFDKDGDNHYDILSAFQKSIRGSDADAAVLYLAMLIKGGDLKSICRRLLVIAAEDIGLAYPQAISIVKACTDSALELGFPEARIPLAEAVILLATSPKSNSAITAVDSALRDLDTINVGSIPDYLRDGHYEGAKKLGRMQDYKYPHSYENNYVKQKYLPSNLENRRYYEYGKNKIEEKCREYWERIKEGHHHHHH”, the “soluble on expression in E. coli” value is on record as “soluble”.

Regarding “MSLKPLAYRMRPTKIEDIIGQQHLVAEDKIIGRMVQAKHLSSMILYGPPGIGKTSIATAIAGSTSIAFRKLNAVINNKKDMEIVAQEAKMSGQVILILDEVHRLDKGKQDFLLPYLENGMIILIGATTANPYHAINPAIRSRTQIFELEPLTPELIKQALERALHDEHRGLGTYSVSIDDQAMEHFAHGCGGDVRSALNALELAVLSTKESADGEIHITLETAEECLQKKSFSHDKDGDAHYDVLSAFQKSIRGSDANAALHYLARLIEAGDLESIARRLLVIAYEDIGLASPQAGPRVLNAIQTAERVGFPEARIPLANAVIELCLSPKSNSAILAIDEALADIRAGKIGDVPKHLKDAHYKGAQELGRGIDYKYPHNYDNGWVEQQYLPDPLKNKQYYKPKQTGKFESALKQVYDKLMKGIITITTDPNSSSVDKLAAALEHHHHHH”, the “soluble on expression in E. coli” value was “soluble”.

Consider “MSLKPVMIIQFSASEGPGHFGDFLAGEHIPFQVLRMDRSDPLPAEIRDCSGLAMMGGPMSANDDLPWMPTLLALIRDAVAQRVPVIGHCLGGQLLAKAMGGEVTDSPHAEIGWVRAWPQHVPQALEWLGTWDELELFEWHYQTFSIPPGAVHILRSEHCANQAYVLDDLHIGFQCHIEMQAHMVREWCSISPEELKGGAEADPAQPMVQSAVEILRDLDVRIATLNRWAEHVYARWIKGLQREGHHHHHH”, for which the “soluble on expression in E. coli” value is reported as “soluble”.

Consider “MSLKPWLLMMLTTLLVGCGGTPQPKVSFYLLPNNPELSEHIQPKTLPLLVVQPVELAAYLDTQGIVYRQSETQVIQARQNQWAQRLSPQLTQRITNDLRRKQSRYWPAPLNASSIQQEHWKLQVRLQRFNGVYTGNAEVAGNWELLNPKGESMLNQEFSFQVPLKDTGYPALVEALSAGVDQLSTQIETQLVTREGHHHHHH”, for which the “soluble on expression in E. coli” value is recorded as “soluble”.
